From paper doi:10.1101/2025.02.17.638454, “Synergistic RAS-MAPK and AKT Activation in MYC-Driven Tumors via Adjacent PVT1 Rearrangements” (bioRxiv, 2025)

Biological target: T1, Recombinant KRAS protein (#ab156968, Abcam) (UniProt P01116 1-189)
T1 construct: KRAS, recombinant protein bought from Abcam; source: bought: Abcam (#ab156968), dialyzed into ITC buffer
Test: ITC; twenty 6 ul injections (150 s intervals) of 500 uM HNB into the cell with 93 uM KRAS; 20 mM Tris pH 8.0, 100 mM NaCl, 5 mM beta-mercaptoethanol; 25 C; Affinity ITC (TA Instruments)
Settings: both partners purified

T1 sequence (P01116 whole entry): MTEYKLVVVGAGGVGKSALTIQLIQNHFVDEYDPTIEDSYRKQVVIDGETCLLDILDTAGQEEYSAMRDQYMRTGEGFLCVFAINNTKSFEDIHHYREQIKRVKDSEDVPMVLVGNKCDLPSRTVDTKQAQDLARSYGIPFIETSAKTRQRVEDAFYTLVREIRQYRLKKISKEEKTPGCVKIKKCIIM

B1: Honeybadger (HNB) peptide used for ITC (peptide)
chain: MKTQLGAVKGFLHV
For B1, the Kd was 364 ± 2 µM.
